This assay addresses HA-tagged N100A zDHHC17 (mouse) (UniProt Q80TN5).

As to “Human ankyrin-B-GFP (220-kDa splice variant of ankyrin-B)”, the protein levels of ankyrin-B-GFP (western blot) co-expressed with N100A zDHHC17 in HEK293T cells, against WT zDHHC17 or zDHHA17 amounted to 3 fold.

The record behind these values is PMC10098127.
